Where a chain is given by its changes, count along the chain named. Names and notes keep the numbering of the source. Values joined by “and” are separate entries in the source; they are usually repeats but may differ in a detail not shown here. Equal entries are not always repeated. Where two headings read alike, the source gives them in different places.
B1: AFFG IgG (antibody, name in Kabat numbering, V domains shown)
VH: QVTLRESGPALVKPTQTLTLTCTFSGFSLSTAGMSVGWIRQPPGKALEWLADIWWDDKKDYNPSLKSRLTISKDTSKNQVVLKVTNMDPADTATYYCARSMITNFYFDVWGQGTTVTVSS
VL: DIQMTQSPSTLSASVGDRVTITCSASSSVGYMHWYQQKPGKAPKLLIYDTFKLASGVPSRFSGSGSGTEFTLTISSLQPDDFATYYCFQGSGYPFTFGGGTKVEIK
B2: AFFY IgG (antibody, name in Kabat numbering, V domains shown)
VH: B1 VH
VL: B1 VL with G92Y
B3: AFSF Fab (Fab, name in Kabat numbering, V domains shown)
VH: B1 VH
VL: B1 VL with F51S, G92F
B4: AFSF IgG (antibody, name in Kabat numbering, V domains shown)
VH: B1 VH
VL: B1 VL with F51S, G92F
B5: G93F Fab (Fab, name in Kabat numbering, V domains shown)
VH: B1 VH with A32S, F105W
VL: B1 VL with F51S, G92F
B6: P11d4 Fab (Fab, V domains shown)
VH: B1 VH with A32P, D57G, D60H, S67D, S100D, T103F, F105W
VL: B1 VL with A25P, S28R, F51M, K52R
B7: P12f2 Fab (Fab, V domains shown)
VH: B1 VH with A32P, D60H, S67D, S100D, T103F
VL: B1 VL with A25L, S28R, K52Y, A54S
B8: W100F Fab (Fab, name in Kabat numbering, V domains shown)
VH: B1 VH with A32S
VL: B1 VL with F51S

Tests used:
[1] = molecular target: T1, F protein of RSV (Long strain) (RSV (Long strain), UniProt P12568 26-574); experiment: cell-based or functional assay
[2] = molecular target: T2, recombinant C-terminally truncated RSV (A2 strain) F protein (RSV (A2 strain), UniProt P03420 26-524); experiment: SPR (BIAcore), IgG over immobilised F
T2 construct: extracellular domain; also called truncated F protein; extracellular domain of the F protein from RSV A2

[3] = molecular target: T2, recombinant C-terminally truncated RSV …; experiment: SPR (BIAcore), Fab over immobilised F
[4] = molecular target: T2, recombinant C-terminally truncated RSV …; experiment: SPR (BIAcore), Fab over immobilised F; remark: listed apart in the source
[5] = molecular target: T2, recombinant C-terminally truncated RSV …; experiment: SPR (BIAcore), Fab over immobilised F; remark: listed apart in the source
[6] = molecular target: T1, F protein of RSV (Long strain); experiment: cell-based or functional assay; remark: listed apart in the source
[7] = molecular target: T1, F protein of RSV (Long strain); experiment: cell-based or functional assay; remark: listed apart in the source
[8] = molecular target: RSV F protein (purified) (respiratory syncytial virus); experiment: SPR (BIAcore), F protein immobilised
[9] = molecular target: T1, F protein of RSV (Long strain); experiment: cell-based or functional assay; remark: listed apart in the source

| Binder | Microneutralization IC50, IgG [1] | koff [2] [s⁻¹] | kon [2] [M⁻¹ s⁻¹] | Microneutralization IC50, Fab [1] | Kd [3] [pM] | koff [3] [s⁻¹] | kon [3] [M⁻¹ s⁻¹] | further results |
| --- | --- | --- | --- | --- | --- | --- | --- | --- |
| B1 | 0.453 µg/ml and 3.02 nM | ≤ 5e-06 | 147000 |  |  |  |  |  |
| B2 | 0.407 µg/ml and 2.71 nM | ≤ 5e-06 | 144000 |  |  |  |  |  |
| B3 |  |  |  | 0.0908 µg/ml and 1.82 nM | ≤ 44 | ≤ 5e-06 | 113000 | fold higher affinity than palivizumab Fab [4]: > 117 fold |
| B4 | 0.521 µg/ml and 3.47 nM | ≤ 5e-06 | 147000 |  |  |  |  |  |
| B5 |  |  |  | 8.84 µg/ml and 177 nM | 1070 | 0.000174 | 163000 | fold improvement in affinity over 493L1FR Fab [4]: 3 to 7 fold |
| B6 |  |  |  |  |  |  |  | Kd [5]: 682 pM; koff [5]: 0.000389 s⁻¹; kon [5]: 570000 M⁻¹ s⁻¹; IC50 [6]: > 20000 pM; Mean IC50 (Control) [7]: > 1 µg/mL; Mean IC50 (Curve) [7]: > 1 µg/mL; koff [8]: 0.000717 s⁻¹; kon [8]: 570000 M⁻¹ s⁻¹ and 572000 M⁻¹ s⁻¹ |
| B7 |  |  |  |  |  |  |  | Kd [5]: 135 pM; koff [5]: 7.2e-05 s⁻¹; kon [5]: 535000 M⁻¹ s⁻¹; IC50 [6]: 650 pM; Mean IC50 (Control) [7]: 0.0326 µg/mL; Mean IC50 (Curve) [7]: 0.0407 µg/mL; Microneutralization IC50, Fab [9]: 0.0407 µg/ml and 0.81 nM; koff [8]: 0.000282 s⁻¹; kon [8]: 663000 M⁻¹ s⁻¹ |
| B8 |  |  |  | 2.6 µg/ml and 52 nM | 510 | 8.4e-05 | 165000 | fold improvement in koff (against palivizumab Fab) [4]: 8 fold |
